Assay results from paper PMC7545093.

Biological target: Vibrio cholerae type IVa pilus secretin PilQ, N-terminally deca-histidine tagged (Vibrio cholerae)
Assay: cryo-EM structure

“Vibrio cholerae type IVa pilus secretin PilQ, N-terminally deca-histidine tagged (natural protein)” was tested, and the stoichiometry N was 14.
